From patent publication US20240383990A1 (DIAGONAL THERAPEUTICS, published 2024)

Legend:
[1] = target: T1, IL-18 receptor (IL-18Rα and IL-18Rβ) on HEK-Blue IL-18 cells (UniProt Q13478 19-541; O95256 20-599, limits assumed); test: cell-based or functional assay
T1 sequence (looked up) 1: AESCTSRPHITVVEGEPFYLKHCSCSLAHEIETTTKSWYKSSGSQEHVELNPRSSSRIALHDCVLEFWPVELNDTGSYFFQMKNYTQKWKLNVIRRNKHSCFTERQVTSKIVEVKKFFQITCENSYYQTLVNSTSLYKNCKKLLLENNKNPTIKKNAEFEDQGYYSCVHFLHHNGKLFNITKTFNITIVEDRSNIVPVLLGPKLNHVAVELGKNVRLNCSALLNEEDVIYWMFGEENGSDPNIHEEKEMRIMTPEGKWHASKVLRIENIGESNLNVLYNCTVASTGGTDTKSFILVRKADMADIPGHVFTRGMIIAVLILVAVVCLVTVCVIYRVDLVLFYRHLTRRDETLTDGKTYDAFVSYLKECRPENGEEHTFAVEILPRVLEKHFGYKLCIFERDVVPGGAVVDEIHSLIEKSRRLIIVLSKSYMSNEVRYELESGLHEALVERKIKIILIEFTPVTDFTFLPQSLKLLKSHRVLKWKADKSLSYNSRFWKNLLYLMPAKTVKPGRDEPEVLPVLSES
T1 sequence (looked up) 2: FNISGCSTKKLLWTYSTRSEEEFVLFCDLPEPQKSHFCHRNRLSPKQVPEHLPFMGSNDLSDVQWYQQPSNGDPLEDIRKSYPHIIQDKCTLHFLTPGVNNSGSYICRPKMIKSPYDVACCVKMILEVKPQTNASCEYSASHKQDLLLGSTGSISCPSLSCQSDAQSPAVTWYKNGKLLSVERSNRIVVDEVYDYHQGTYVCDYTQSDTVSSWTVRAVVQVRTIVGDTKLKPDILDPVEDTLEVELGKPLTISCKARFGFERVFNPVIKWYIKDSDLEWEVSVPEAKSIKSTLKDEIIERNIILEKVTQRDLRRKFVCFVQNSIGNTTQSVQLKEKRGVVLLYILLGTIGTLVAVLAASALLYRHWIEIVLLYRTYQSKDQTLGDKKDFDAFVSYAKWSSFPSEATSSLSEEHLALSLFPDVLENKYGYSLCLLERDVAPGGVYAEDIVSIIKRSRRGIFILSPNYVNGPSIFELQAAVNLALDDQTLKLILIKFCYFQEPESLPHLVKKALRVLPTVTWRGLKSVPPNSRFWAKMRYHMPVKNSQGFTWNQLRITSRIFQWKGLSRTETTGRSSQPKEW

[2] = target: T1, IL-18 receptor (IL-18Rα and IL-18Rβ) on …; test: cell-based or functional assay; remark: listed apart in the source

HEK-Blue assay, % human IL-18 [1]: 65 % of human IL18 activity
HEK-Blue assay, % hu-IL-18 [2]: 89 % of human IL18 activity
B1: DGL209 (bispecific antibody)
chain 1: QVQLVESGGGLVQAGGSLRLSCAASGRTFSKHAMGWFRQAPGKEREFVAAIDWSGGSTYYADSVKGRFTISRDNAKNTVYLQMDSLKPEDTAVYYCAADSYTDYAQLWLPELESEYDYWGQGTLVTVSSPLAPCPPCPAPEAAGAPSVFLFPPKPKDTLMISRTPEVTCVVVDVSHEDPEVKFNWYVDGVEVHNAKTKPREEQYNSTYRVVSVLTVLHQDWLNGKEYKCKVSNKALPAPIEKTISKAKGQPREPQVCTLPPSRDELTKNQVSLSCAVKGFYPSDIAVEWESNGQPENNYKTTPPVLDSDGSFFLVSKLTVDKSRWQQGNVFSCSVMHEALHNHYTQKSLSLSPGWSHPQFEK
chain 2: QLQLVESGGGLVQAGGSLRLSCAASRSITFSHNVMGWYRQAPGKQRELVASIGSGGSTNYVDSVKGRATISRDNAKKTVYLQMNSLKPEDTAVYYCGVVVGVYRGSLGQGTLVTVSSPLAPCPPCPAPEAAGAPSVFLFPPKPKDTLMISRTPEVTCVVVDVSHEDPEVKFNWYVDGVEVHNAKTKPREEQYNSTYRVVSVLTVLHQDWLNGKEYKCKVSNKALPAPIEKTISKAKGQPREPQVYTLPPCRDELTKNQVSLWCLVKGFYPSDIAVEWESNGQPENNYKTTPPVLDSDGSFFLYSKLTVDKSRWQQGNVFSCSVMHEALHNHYTQKSLSLSPGEPEA
